Test [1] deals with CcBurs-α (Cacopsylla chinensis). Kind of test: non-reduced versus reduced SDS-PAGE with western blot; His-tagged subunits expressed separately or co-expressed in HEK293T, collected from the medium and purified on Ni-NTA; 12% SDS-PAGE (non-reduced) and 15% SDS-PAGE (reduced), anti-His blot. For orientation: Immunoblotting shows a protein as a band on a membrane.
Test [2] addresses CcBurs-β (Cacopsylla chinensis). The test is described as above.

By stoichiometry N is commonly meant the number of molecules, sites or subunits per partner or assembly. In turn, CcBurs-α (natural protein) gave a stoichiometry N in test [1] of 2. In test [2], CcBurs-β (natural protein) displayed a stoichiometry N of 2.
